Data as given in ChEMBL document CHEMBL3593243, “Discovery of novel, potent, selective and cellular active ADC type PTP1B inhibitors via fragment-docking-oriented de novel design” (Bioorg Med Chem, 2015).

How the values were obtained:
[1] = substrate: CCOc1cc(NS(C)(=O)=O)c(OCC)cc1CNC(=O)Nc1ccc(OC)cc1; conditions: Homo sapiens; 0.1 uM
Description: Inhibition of recombinant PTP1B (unknown origin) using pNPP as substrate assessed as enzyme Km at 0.1 uM after 30 mins by Michaelis-Menten plot analysis

[2] = substrate: CCOc1cc(NS(C)(=O)=O)c(OCC)cc1CNC(=O)Nc1ccc(OC)cc1; conditions: Homo sapiens; 0.2 uM
Description: Inhibition of recombinant PTP1B (unknown origin) using pNPP as substrate assessed as enzyme Km at 0.2 uM after 30 mins by Michaelis-Menten plot analysis

[3] = substrate: CCOc1cc(NS(C)(=O)=O)c(OCC)cc1CNC(=O)Nc1ccc(OC)cc1; conditions: Homo sapiens; 0.4 uM
Description: Inhibition of recombinant PTP1B (unknown origin) using pNPP as substrate assessed as enzyme Km at 0.4 uM after 30 mins by Michaelis-Menten plot analysis

[4] = substrate: CCOc1cc(NS(C)(=O)=O)c(OCC)cc1CNC(=O)Nc1ccc(OC)cc1; conditions: Homo sapiens; 0.8 uM
Description: Inhibition of recombinant PTP1B (unknown origin) using pNPP as substrate assessed as enzyme Km at 0.8 uM after 30 mins by Michaelis-Menten plot analysis

[5] = substrate: CCOc1cc(NS(C)(=O)=O)c(OCC)cc1CNC(=O)Nc1ccc(OC)cc1; conditions: Homo sapiens; 0.1 uM; remark: listed apart in the source
Description: Inhibition of recombinant PTP1B (unknown origin) using pNPP as substrate assessed as enzyme Vmax at 0.1 uM after 30 mins by Michaelis-Menten plot analysis

[6] = substrate: CCOc1cc(NS(C)(=O)=O)c(OCC)cc1CNC(=O)Nc1ccc(OC)cc1; conditions: Homo sapiens; 0.2 uM; remark: listed apart in the source
Description: Inhibition of recombinant PTP1B (unknown origin) using pNPP as substrate assessed as enzyme Vmax at 0.2 uM after 30 mins by Michaelis-Menten plot analysis

[7] = substrate: CCOc1cc(NS(C)(=O)=O)c(OCC)cc1CNC(=O)Nc1ccc(OC)cc1; conditions: Homo sapiens; 0.4 uM; remark: listed apart in the source
Description: Inhibition of recombinant PTP1B (unknown origin) using pNPP as substrate assessed as enzyme Vmax at 0.4 uM after 30 mins by Michaelis-Menten plot analysis

[8] = substrate: CCOc1cc(NS(C)(=O)=O)c(OCC)cc1CNC(=O)Nc1ccc(OC)cc1; conditions: Homo sapiens; 0.8 uM; remark: listed apart in the source
Description: Inhibition of recombinant PTP1B (unknown origin) using pNPP as substrate assessed as enzyme Vmax at 0.8 uM after 30 mins by Michaelis-Menten plot analysis

B1: Tyrosine-protein phosphatase non-receptor type 1 (Homo sapiens), P18031 (protein)
chain: MEMEKEFEQIDKSGSWAAIYQDIRHEASDFPCRVAKLPKNKNRNRYRDVSPFDHSRIKLHQEDNDYINASLIKMEEAQRSYILTQGPLPNTCGHFWEMVWEQKSRGVVMLNRVMEKGSLKCAQYWPQKEEKEMIFEDTNLKLTLISEDIKSYYTVRQLELENLTTQETREILHFHYTTWPDFGVPESPASFLNFLFKVRESGSLSPEHGPVVVHCSAGIGRSGTFCLADTCLLLMDKRKDPSSVDIKKVLLEMRKFRMGLIQTADQLRFSYLAVIEGAKFIMGDSSVQDQWKELSHEDLEPPPEHIPPPPRPPKRILEPHNGKCREFFPNHQWVKEETQEDKDCPIKEEKGSPLNAAPYGIESMSQDTEVRSRVVGGSLRGAQAASPAKGEPSLPEKDEDHALSYWKPFLVNMCVATVLTAGAYLCYRFLFNSNT
Protein B1 has a Km [1] of 2.96 mM, a Km [2] of 3.89 mM and a Km [3] of 4.52 mM. The Km [4] was 7.32 mM, the Vmax (milli optical density/minute) [5] was 58.3 and the Vmax (milli optical density/minute) [6] was 54.8. It also gave a Vmax (milli optical density/minute) [7] of 48.9 and a Vmax (milli optical density/minute) [8] of 52.5.
